{"source": "paper PMC12668182", "about": "“Molecular basis for CSB stimulation of the SNM1A DNA repair nuclease” (Research Square, 2025)", "binders": {"B1": {"name": "CSB lacking the N-terminal domain (DN-CSB, a.a. 402-1493) (domain or fragment, human, UniProt Q03468 402-1493, looked up)", "chain": "YELKPLPKGGKRQKKVPVQEIDDDFFPSSGEEAEAASVGEGGGGGRKVGRYRDDGDEDYYKQRLRRWNKLRLQDKEKRLKLEDDSEESDAEFDEGFKVPGFLFKKLFKYQQTGVRWLWELHCQQAGGILGDEMGLGKTIQIIAFLAGLSYSKIRTRGSNYRFEGLGPTVIVCPTTVMHQWVKEFHTWWPPFRVAILHETGSYTHKKEKLIRDVAHCHGILITSYSYIRLMQDDISRYDWHYVILDEGHKIRNPNAAVTLACKQFRTPHRIILSGSPMQNNLRELWSLFDFIFPGKLGTLPVFMEQFSVPITMGGYSNASPVQVKTAYKCACVLRDTINPYLLRRMKSDVKMSLSLPDKNEQVLFCRLTDEQHKVYQNFVDSKEVYRILNGEMQIFSGLIALRKICNHPDLFSGGPKNLKGLPDDELEEDQFGYWKRSGKMIVVESLLKIWHKQGQRVLLFSQSRQMLDILEVFLRAQKYTYLKMDGTTTIASRQPLITRYNEDTSIFVFLLTTRVGGLGVNLTGANRVVIYDPDWNPSTDTQARERAWRIGQKKQVTVYRLLTAGTIEEKIYHRQIFKQFLTNRVLKDPKQRRFFKSNDLYELFTLTSPDASQSTETSAIFAGTGSDVQTPKCHLKRRIQPAFGADHDVPKRKKFPASNISVNDATSSEEKSEAKGAEVNAVTSNRSDPLKDDPHMSSNVTSNDRLGEETNAVSGPEELSVISGNGECSNSSGTGKTSMPSGDESIDEKLGLSYKRERPSQAQTEAFWENKQMENNFYKHKSKTKHHSVAEEETLEKHLRPKQKPKNSKHCRDAKFEGTRIPHLVKKRRYQKQDSENKSEAKEQSNDDYVLEKLFKKSVGVHSVMKHDAIMDGASPDYVLVEAEANRVAQDALKALRLSRQRCLGAVSGVPTWTGHRGISGAPAGKKSRFGKKRNSNFSVQHPSSTSPTEKCQDGIMKKEGKDNVPEHFSGRAEDADSSSGPLASSSLLAKMRARNHLILPERLESESGHLQEASALLPTTEHDDLLVEMRNFIAFQAHTDGQASTREILQEFESKLSASQSCVFRELLRNLCTFHRTSGGEGIWKLKPEYC", "notes": "Cloned by InFusion from the full-length CSB pFastBac vector"}, "B2": {"name": "CSB winged-helix domain (WHD, a.a. 1424-1493) (domain or fragment, human, UniProt Q03468 1424-1493, looked up)", "chain": "HDDLLVEMRNFIAFQAHTDGQASTREILQEFESKLSASQSCVFRELLRNLCTFHRTSGGEGIWKLKPEYC", "notes": "also called CSB-WHD; source: E. coli BL21(DE3) pLysS, purified (Ni-NTA, Superdex S75)"}, "B3": {"name": "N-Avi-Biotin-SNM1A (a.a. 698-1040), wild type (domain or fragment, human, UniProt Q6PJP8 698-1040, looked up)", "chain": "KKTCPFYKKIPGTGFTVDAFQYGVVEGCTAYFLTHFHSDHYAGLSKHFTFPVYCSEITGNLLKNKLHVQEQYIHPLPLDTECIVNGVKVVLLDANHCPGAVMILFYLPNGTVILHTGDFRADPSMERSLLADQKVHMLYLDTTYCSPEYTFPSQQEVIRFAINTAFEAVTLNPHALVVCGTYSIGKEKVFLAIADVLGSKVGMSQEKYKTLQCLNIPEINSLITTDMCSSLVHLLPMMQINFKGLQSHLKKCGGKYNQILAFRPTGWTHSNKFTRIADVIPQTKGNISIYGIPYSEHSSYLEMKRFVQWLKPQKIIPTVNVGTWKSRSTMEKYFREWKLEAGY", "modifications": "biotin on the N-terminal Avi tag", "notes": "SNM1A (DCLRE1A), human, core catalytic domain (MBL-beta-CASP), residues 698-1040; Immobilised in SPR through the biotinylated Avi tag; held on streptavidin mutein beads in the co-purifications; also called N-Avi-SNM1A_(698-1040); core catalytic domain of SNM1A; source: Sf9 insect cells (BirA co-expressed, D-biotin added), purified (streptavidin mutein matrix, Superdex S75); not shown: Avi …"}, "B4": {"name": "SNM1A (a.a. 698-1040), tag of the preparation not stated (domain or fragment, human, UniProt Q6PJP8 698-1040, looked up)", "chain": "B3 chain", "notes": "SNM1A (DCLRE1A), human, core catalytic domain, residues 698-1040; Used for HDX-MS, mass photometry and nuclease assays; Mass photometry legend gives an expected mass of 36 kDa; also called C-terminal SNM1A; source: purified from insect cells"}, "B5": {"name": "HaloTag-JF-552-labelled SNM1A (a.a. 698-1040), partially purified (domain or fragment, human, UniProt Q6PJP8 698-1040, looked up)", "chain": "B3 chain", "modifications": "JF-552 dye on the HaloTag", "notes": "SNM1A (DCLRE1A), human, catalytic C-terminal domain, residues 698-1040; Addgene vector (printed as Addgene: 58241) giving an N-terminal His-Halo tag; also called SNM1A (JF-552, green); SNM1A_(698-1040) for single-molecule studies; source: Expi293F, transfected, partially purified (Ni-NTA); not shown: HaloTag, N-terminal, kept"}, "B6": {"name": "E864A-SNM1A (MBL-beta-CASP domain, a.a. 698-1040), N-Avi (domain or fragment, human, UniProt Q6PJP8 698-1040, looked up)", "chain": "B3 chain with E167A", "modifications": "biotin on the N-terminal Avi tag", "notes": "SNM1A (DCLRE1A), human, core catalytic domain, residues 698-1040, E864A; also called SNM1A-E864A; SNM1A (E864A); source: Sf9 insect cells (D-biotin added), purified (streptavidin mutein matrix, gel filtration)"}, "B7": {"name": "CSB C-terminal domain (a.a. 1187-1493) (domain or fragment, human, UniProt Q03468 1187-1493, looked up)", "chain": "HHSVAEEETLEKHLRPKQKPKNSKHCRDAKFEGTRIPHLVKKRRYQKQDSENKSEAKEQSNDDYVLEKLFKKSVGVHSVMKHDAIMDGASPDYVLVEAEANRVAQDALKALRLSRQRCLGAVSGVPTWTGHRGISGAPAGKKSRFGKKRNSNFSVQHPSSTSPTEKCQDGIMKKEGKDNVPEHFSGRAEDADSSSGPLASSSLLAKMRARNHLILPERLESESGHLQEASALLPTTEHDDLLVEMRNFIAFQAHTDGQASTREILQEFESKLSASQSCVFRELLRNLCTFHRTSGGEGIWKLKPEYC", "notes": "pNIC28-Bsa4 vector: N-terminal His6 followed by a TEV site; no cleavage is described; also called C-terminal CSB construct; source: E. coli BL21(DE3) pLysS, purified (Ni-NTA, Superdex S75)"}, "B8": {"name": "CSB (a.a. 1308-1493) (domain or fragment, human, UniProt Q03468 1308-1493, looked up)", "chain": "VSGVPTWTGHRGISGAPAGKKSRFGKKRNSNFSVQHPSSTSPTEKCQDGIMKKEGKDNVPEHFSGRAEDADSSSGPLASSSLLAKMRARNHLILPERLESESGHLQEASALLPTTEHDDLLVEMRNFIAFQAHTDGQASTREILQEFESKLSASQSCVFRELLRNLCTFHRTSGGEGIWKLKPEYC", "notes": "source: E. coli BL21(DE3) pLysS, purified (Ni-NTA, Superdex S75)"}}, "key": {"[1]": {"biological_target": "the molecule itself", "test": "SEC-MALS; DN-CSB alone, 5 uM; monomer to dimer"}, "[2]": {"biological_target": "B3", "test": "pull-down + SEC; co-purification: CSB construct (eluted from Ni-NTA, desalted) incubated with N-Avi-Biotin-SNM1A on streptavidin mutein beads, washed (500 mM NaCl, 1 mM Mg2+), eluted with 5 mM D-biotin, run on Superdex S200 GL 10/300; SDS-PAGE, MS and calibration curve", "details": "both partners purified"}, "[3]": {"biological_target": "B3", "test": "SPR; single-cycle; SNM1A immobilised via biotinylated N-terminal Avi tag on a Series S SA surface (~4000 RU); CSB constructs as analytes, 5 or 6 two-fold dilutions from 500 nM or 1 uM; 20 mM HEPES pH 7.5, 150 mM NaCl, 0.5 mM TCEP; 1:1 Langmuir fit; apparent KD", "details": "both partners purified"}, "[4]": {"biological_target": "B6", "test": "SPR; single-cycle; SNM1A immobilised via biotinylated N-terminal Avi tag on a Series S SA surface (~4000 RU); CSB constructs as analytes, 5 or 6 two-fold dilutions from 500 nM or 1 uM; 20 mM HEPES pH 7.5, 150 mM NaCl, 0.5 mM TCEP; 1:1 Langmuir fit; apparent KD", "details": "both partners purified"}, "[5]": {"biological_target": "T1, full-length CSB (ERCC6), wild type, recombinant (human, UniProt Q03468 1-1493)", "T1 construct": "CSB (ERCC6), human, full length, a.a; A TEV site follows the N-terminal tags, but no cleavage is described; also called FL-CSB; WT-CSB; source: Sf9 insect cells, purified (Ni-NTA, Superdex S200, HiTrap SP)", "test": "SPR; single-cycle; SNM1A immobilised via biotinylated N-terminal Avi tag on a Series S SA surface (~4000 RU); CSB constructs as analytes, 5 or 6 two-fold dilutions from 500 nM or 1 uM; 20 mM HEPES pH 7.5, 150 mM NaCl, 0.5 mM TCEP; 1:1 Langmuir fit; apparent KD", "details": "both partners purified"}, "[6]": {"biological_target": "T1, full-length CSB (ERCC6), wild type, …", "test": "mass photometry; CSB and SNM1A mixed at 200 nM each, 5 min at room temperature, diluted 10-fold into the gasket; 50 mM HEPES pH 7.5, 300 mM NaCl, 0.5 mM TCEP; KD from mass counts", "details": "both partners purified"}, "[7]": {"biological_target": "T2, HaloTag-CSB, full length, JaneliaFluor-labelled (human, UniProt Q03468 1-1493, JaneliaFluor dye (JF552 or JF635) on the HaloTag)", "T2 construct": "CSB (ERCC6), human, full length, codon-optimised for mammalian expression; Vectors with N-terminal HaloTag under a CMV promoter (Promega pFN28A or Addgene 58241, both used on separate days); also called CSB (JF-635, red); CSB (JF552, green); source: Expi293F, transfected, in nuclear extract; not shown: HaloTag, N-terminal, kept", "test": "single-molecule fluorescence on tethered DNA (SMADNE, LUMICKS C-Trap); partially purified HaloTag-JF-552 SNM1A added to HaloTag-CSB (JF635) nuclear extract, on lambda dsDNA; category 9 colocalisation events; apparent constants; DNA present", "details": "one partner purified"}, "[8]": {"biological_target": "T2, HaloTag-CSB, full length, …", "test": "single-molecule fluorescence on tethered DNA (SMADNE, LUMICKS C-Trap); partially purified HaloTag-JF-552 SNM1A added to HaloTag-CSB (JF635) nuclear extract, on a site-specific ICL flap repair intermediate in 12 kb DNA; apparent constants; DNA present", "details": "one partner purified"}, "[9]": {"biological_target": "B3", "test": "SPR; multi-cycle; SNM1A immobilised via biotinylated N-terminal Avi tag (~4000 RU); two-fold dilutions from 2 uM, 300 s injection, 1200 s dissociation; regeneration with 1 M NaCl; apparent KD", "details": "both partners purified"}}, "note": "Changes are numbered by the printed parent chain. Names and notes keep the numbering of the source. Values joined by “and” are separate entries in the source; they are usually repeats but may differ in a detail not shown here. Identical values can stand only once."}
{"binder": "B1", "values": [{"measurement": "stoichiometry N", "setting": "[1]", "result": 2}]}
{"binder": "B2", "values": [{"measurement": "stoichiometry N", "setting": "[2]", "result": 1}, {"measurement": "Kd", "setting": "[3]", "result": 89, "unit": "nM"}, {"measurement": "Kd", "setting": "[4]", "result": "~1000", "unit": "nM"}]}
{"binder": "B3", "values": [{"measurement": "Kd", "setting": "[5]", "result": "4.8 nM and 4 nM"}]}
{"binder": "B4", "values": [{"measurement": "Kd", "setting": "[6]", "result": 499, "unit": "nM"}]}
{"binder": "B5", "values": [{"measurement": "apparent KD of SNM1A for CSB-bound lambda dsDNA", "setting": "[7]", "result": 17.5, "unit": "nM"}, {"measurement": "apparent KD of SNM1A for the CSB-bound ICL repair intermediate", "setting": "[8]", "result": 45, "unit": "nM"}]}
{"binder": "B6", "values": [{"measurement": "Kd", "setting": "[5]", "result": 8, "unit": "nM"}]}
{"binder": "B7", "values": [{"measurement": "stoichiometry N", "setting": "[2]", "result": 2}, {"measurement": "Kd", "setting": "[3]", "result": "10.7 nM and 12 nM"}, {"measurement": "Kd", "setting": "[4]", "result": 29, "unit": "nM"}]}
{"binder": "B8", "values": [{"measurement": "binding result", "setting": "[9]", "result": "binds"}]}
